Publication PMC10702442, “Arabidopsis thaliana Phytocystatin 6 Forms Functional Oligomer and Amyloid Fibril States” (Biochemistry, 2023)

Columns and labels:
[1] = target: AtCYT6-CTD_(long), the C-terminal domain containing the interdomain linker at its N-terminus (Arabidopsis thaliana); assay: SEC; Superdex 75, 500 uL of protein at up to 2 mg/mL, 20 mM Tris pH 7.5, 50 mM NaCl, nonreducing, room temperature
[2] = target: the molecule itself; assay: SEC; Superdex 200, 500 uL of AtCYT6 at 2 mg/mL, 20 mM Tris pH 7.5, 50 mM NaCl, without or with 2 mM DTT, room temperature
[3] = target: the molecule itself; assay: cross-linking; 0.175% (w/v) glutaraldehyde, protein at 0.3 mg/mL in 20 mM citric acid pH 5.5, 100 mM NaCl, room temperature, 1, 5 and 10 min, read by SDS-PAGE
[4] = target: T1, Papain from Carica papaya (Carica papaya, UniProt P00784 134-345); assay: cell-based or functional assay
T1 sequence (looked up): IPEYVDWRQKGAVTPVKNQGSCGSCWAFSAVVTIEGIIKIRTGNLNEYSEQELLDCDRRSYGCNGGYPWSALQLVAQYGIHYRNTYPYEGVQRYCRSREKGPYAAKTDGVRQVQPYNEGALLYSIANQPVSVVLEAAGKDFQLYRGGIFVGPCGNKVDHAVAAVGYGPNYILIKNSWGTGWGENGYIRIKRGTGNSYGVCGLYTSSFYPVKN

[5] = target: the molecule itself; assay: SEC; Superdex 75, 500 uL of protein at up to 2 mg/mL, 20 mM Tris pH 7.5, 50 mM NaCl, nonreducing, room temperature

AtCYT6-CTD_(long), the C-terminal domain containing the interdomain linker at its N-terminus (domain or fragment)
stoichiometry N [1]: 2

B1: Arabidopsis thaliana phytocystatin 6 (AtCYT6), full-length AtCYT6 lacking the N-terminal signal peptide (natural protein, UniProt Q8H0X6 35-234, looked up)
chain: ALVGGVGDVPANQNSGEVESLARFAVDEHNKKENALLEFARVVKAKEQVVAGTLHHLTLEILEAGQKKLYEAKVWVKPWLNFKELQEFKPASDAPAITSSDLGCKQGEHESGWREVPGDDPEVKHVAEQAVKTIQQRSNSLFPYELLEVVHAKAEVTGEAAKYNMLLKLKRGEKEEKFKVEVHKNHEGALHLNHAEQHHD
notes: Cystatin 6 (phytocystatin 6) of Arabidopsis thaliana without the N-terminal signal peptide (M1-M34); both cystatin domains and the interdomain linker with Cys138; pET-15b vector; In the functional rows on fibrils this protein stood as washed amyloid fibrils (heated at 80 °C, pH 3.0); also called cystatin 6 from A. thaliana; source: E. coli BL21 (DE3), purified (Ni2+ IMAC, gel filtration)
binding result [2]: binds

B2: AtCYT6, alkylated before cross-linking (natural protein, Arabidopsis thaliana, UniProt Q8H0X6 35-234, looked up)
chain: B1 chain
modifications: alkylated to prevent disulfide-mediated dimerization via Cys138
notes: As m1: cystatin 6 of Arabidopsis thaliana without the N-terminal signal peptide (M1-M34); Ala35 to Asp234 according to Uniprot ID Q8H0X6; source: E. coli BL21 (DE3), purified (Ni2+ IMAC, gel filtration), then alkylated
stoichiometry N [3]: 2

B3: AtCYT6-NTD, the isolated N-terminal cystatin domain of AtCYT6 (domain or fragment, Arabidopsis thaliana, UniProt Q8H0X6 35-127, looked up)
chain: ALVGGVGDVPANQNSGEVESLARFAVDEHNKKENALLEFARVVKAKEQVVAGTLHHLTLEILEAGQKKLYEAKVWVKPWLNFKELQEFKPASD
notes: N-terminal cystatin domain of cystatin 6 of Arabidopsis thaliana; no cysteine; The limits Ala35–Asp127 are printed for the AlphaFold model named AtCYT6-NTD, on Uniprot ID Q8H0X6; pET-28a vector; also called N-terminal domain; source: E. coli BL21 (DE3), purified (Ni2+ IMAC, gel filtration)
IC50 of papain inhibition in a fluorescence substrate assay: dimer peak fraction of AtCYT6-NTD against the monomer peak fraction [4]: 10 fold | stoichiometry N [5]: 2
